Experimental data published in paper PMC5240642.

Biological target: FcγRIIIa F158 extracellular domain (UniProt P08637)
Experiment: SPR

Sequence of UniProt P08637 (P08637 17-208): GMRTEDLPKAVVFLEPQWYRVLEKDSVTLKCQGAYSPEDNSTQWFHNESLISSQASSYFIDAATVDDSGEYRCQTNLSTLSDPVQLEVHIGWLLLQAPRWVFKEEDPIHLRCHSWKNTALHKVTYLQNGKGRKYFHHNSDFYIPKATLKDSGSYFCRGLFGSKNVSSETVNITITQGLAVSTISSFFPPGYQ

| Kd [nM] | Substance |
| --- | --- |
| 8 | MSB11022 complexed with TNF homotrimer (2:1 molar ratio) (from UniProt P01375 77-233) |
| 6.9 | Humira® complexed with TNF homotrimer (2:1 molar ratio) (from UniProt P01375 77-233) |
